Experimental data as given in US7910708 (Novartis, dated 2011).

molecular target: T1, recombinant human IL-13 (human, UniProt P35225 35-146, limits assumed); experiment: cell-based or functional assay
T1 sequence (P35225 35-146 limits assumed): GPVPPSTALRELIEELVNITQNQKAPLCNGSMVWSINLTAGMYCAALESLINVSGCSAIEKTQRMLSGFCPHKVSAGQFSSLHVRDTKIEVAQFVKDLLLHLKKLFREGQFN

Binder	EC50 [nM] human IL-13 (IL-13-induced eotaxin release from human lung fibroblasts) [nM]
01471/G6 antibody (human IgG1, kappa) (antibody, V domains shown) VH: EVQLVESGGGVVQPGRSLRLSCAASGFTFSNYGMHWVRQAPGKGLEWVAIIWYDGSNKYYADSVKGRFTISRDNSKNTLYLQMNSLRAEDTAVYYCVKGSGDIPFDYWGQGTLVT VL: EIVLTQSPATLSSSPGERATLSCRASQSVSSYLAWYQQKPGQAPRLLIYDASNRATGIPARFSGSGSGTDFTLTISSLEPEDFAVYYCHQRSHWPPIFTFGPGT	1.23
01771/E10 antibody (human IgG1, kappa) (antibody, V domains shown) VH: QVQLVQSGGGVVQPGRSLRLSCAASGFTFSSYGMHWVRQAPGKGLEWVAIIWYDGSNKYYADSVKGRFTISRDNSKNTLYLQMNSLRAEDTAVYYCARLWFGDLDAFDIWGQGTMVT VL: EIVLTQSPATLSLSPGERATLSCRASQSVSSYLAWYQQKPGQAPRLLIYDASNRATGIPARFSGSGSGTDFTLTISSLEPEDFAVYYCHQRSSWPPIFTFGPGT	1.71
03161/H2 antibody (human IgG1, kappa) (antibody, V domains shown) VH: EVQLVESGGGVVQPGRSLRLSCAASGFTFSNYGMHWVRQAPGKGLEWVAIIWYDGSNKYYADSVKGRFTISRDNSKNTLYLQMNSLRAEDTAVYYCVKGSGDIPFDYWGQGTLVT VL: EIVLTQSPATLSSSPGERATLSCRASQSVSSYLAWYQQKPGQAPRLLIYDASNRATGTPARFSGSGSGTDFTLTISSLEPEDFAVYYCHQRSHWPPIFTFGPGT	0.95
01951/G12 antibody (human IgG1, kappa) (antibody, V domains shown) VH: EVQLVESGGGVVQPGRSLRLSCAASGFTFSSYGMHWVRQAPGKGLEWVAIIWYDGSNKYYADSVKGRFTISRDNSKNTLYLQMNSLRAEDTAVYYCARLWFGDLDAFDIWGQGTMVTVSS VL: EIVLTQSPATLSLSPGERAILSCRAGQSVSSYLVWYQQKPGQAPRLLIYDASNRATGIPARFSGSGSGTDFTLTISSLEPEDFAVYYCQQRSSWPPVYTFGQGTKLEIKR	0.33

molecular target: T1, recombinant human IL-13; experiment: SPR, BIAcore 2000; Fab captured via anti-human L-kappa antibody, hrIL-13 injected; 1:1 Langmuir model
Experimental: Quantitative Analysis of Binding Affinities: Determination of Anti-Human IL-13 Fab Candidates Surface plasmon resonance measurements quantifying the interaction of anti-IL-13 Fabs with several hrIL-13 are performed using the optical biosensor, BIAcore 2000. Specific binding of IL-13 to a respective IL-13 Fab immobilized on a BIAcore chip can be measured by following accumulation of the ligand on the receptor. The microscopic association ($kon$) and dissociation rates ($koff$) can be obtained directly from the mass accumulation rates on the chip and are expressed in response units (RUs). Anti-IL-13 Fab is immobilized on the chip surface via a secondary anti-human Lκ antibody (Jackson Immunochemicals). This capture antibody was covalently bound using the 'Amine coupling kit' (BIAcore, Cat. No. BR-1000-50) as recommended in the manufacturers' protocols. 250 μl of varying concentrations of hrIL-13 was injected at flow rate of 20 μl/min and the kinetic trace was recorded. The chip surface was regenerated by two acid wash steps using 100 mM HCl and injecting 10 μl with a flow rate of 20 μl/min. This treatment leads to dissociation of the Fab IL-13 complex due to reversible acid denaturation. No significant loss of binding activity was observed when the antibody was reinjected for a subsequent run. The kinetic traces were evaluated with the BIAcore software applying the 1:1 Langmuir association model The summarized affinity data on human IL-13 is shown in Table 1 herein.

Binder	Kd [nM]
01471/G6 Fab (Fab, V domains shown, Soluble human Fab expressed in E. coli, kappa light chain (captured via anti-human L-kappa antibody); the printed variable regions stop short of the end of framework 4) VH: EVQLVESGGGVVQPGRSLRLSCAASGFTFSNYGMHWVRQAPGKGLEWVAIIWYDGSNKYYADSVKGRFTISRDNSKNTLYLQMNSLRAEDTAVYYCVKGSGDIPFDYWGQGTLVT VL: EIVLTQSPATLSSSPGERATLSCRASQSVSSYLAWYQQKPGQAPRLLIYDASNRATGIPARFSGSGSGTDFTLTISSLEPEDFAVYYCHQRSHWPPIFTFGPGT	0.1
01951/G12 Fab (Fab, V domains shown, Soluble human Fab expressed in E. coli, kappa light chain) VH: EVQLVESGGGVVQPGRSLRLSCAASGFTFSSYGMHWVRQAPGKGLEWVAIIWYDGSNKYYADSVKGRFTISRDNSKNTLYLQMNSLRAEDTAVYYCARLWFGDLDAFDIWGQGTMVT VL: EIVLTQSPATLSLSPGERAILSCRAGQSVSSYLVWYQQKPGQAPRLLIYDASNRATGIPARFSGSGSGTDFTLTISSLEPEDFAVYYCQQRSSWPPVYTFGQGT	0.48
01771/E10 Fab (Fab, V domains shown, Soluble human Fab expressed in E. coli, kappa light chain) VH: QVQLVQSGGGVVQPGRSLRLSCAASGFTFSSYGMHWVRQAPGKGLEWVAIIWYDGSNKYYADSVKGRFTISRDNSKNTLYLQMNSLRAEDTAVYYCARLWFGDLDAFDIWGQGTMVT VL: EIVLTQSPATLSLSPGERATLSCRASQSVSSYLAWYQQKPGQAPRLLIYDASNRATGIPARFSGSGSGTDFTLTISSLEPEDFAVYYCHQRSSWPPIFTFGPGT	0.343
03161/H2 Fab (Fab, V domains shown, Soluble human Fab expressed in E. coli, kappa light chain) VH: EVQLVESGGGVVQPGRSLRLSCAASGFTFSNYGMHWVRQAPGKGLEWVAIIWYDGSNKYYADSVKGRFTISRDNSKNTLYLQMNSLRAEDTAVYYCVKGSGDIPFDYWGQGTLVT VL: EIVLTQSPATLSSSPGERATLSCRASQSVSSYLAWYQQKPGQAPRLLIYDASNRATGTPARFSGSGSGTDFTLTISSLEPEDFAVYYCHQRSHWPPIFTFGPGT	0.197
